Measurements published in patent publication US5578310A, “Topical bioadhesive ointment compositions and their use in wound healing” (Berlex Laboratories Inc., priority 1994, dated 1996).

Experiments:
[1] = In vivo distribution of 125I-TGFα in the GI contents from TJ-TGFα formulation on wounded cheek pouch; design: species or system Golden Syrian hamsters; conditions: cheek pouch wound
Description: (§1) The TGFα-containing ointment composition of Example 2 (TJ-TGFα formulation) was subjected, both in vitro and in vivo, to evaluation to meet the therapeutical requirements for oral mucositis. The in vitro evaluation included TGFα release and extraction from the composition, autoclave sterilizability and the bioactivity and stability of TGFα in the composition. The in vivo evaluation included TGFα uptake and tissue distribution of absorbed TGFα from hamster's cheek pouch.
(§2) B. The in vivo uptake of TGFα from the TJ-TGFα formulation was determined in Golden Syrian hamsters, female, approximately 150 g using an ^125 I-TGFα formulation (specific activity-45 μci/μg), the hamster's cheek pouch having a mechanically created wound. A pharmacokinetic study of tissue distribution of TGFα absorbed by the hamsters was also conducted. The methods employed were as follows:
(§3) 1. Fast hamsters overnight.
(§4) 2. Anesthetize hamsters by I.M. injection of ketamine HCl.
(§5) 3. Create a 2 mm diameter wound on the right-hand side of hamster's cheek pouch by a biopsy punch.
(§6) 4. Following the removal of the debridement and blood clot, administer 20 μl TJ-TGFα formulation containing 26 μci 125I-TGFα onto the wound area by a Gilson Microman.
(§7) 5. Keep the hamsters in their cages and give no water or food during the course of 6 hours study.
(§8) 6. Select three hamsters at time 15 minutes, 30 minutes, 1 hour, 2 hours, 4 hours and 6 hours and select one hamster at 24 hours for TGFα uptake and tissue distribution study.
(§9) 8. Sacrifice hamster by inhalation of an overdose of carbon dioxide vapor from dry ice in a closed chamber.
(§10) 9. Immediately after sacrificing, remove the liver, kidney, thyroid, submaxillary gland, esophagus, stomach, small intestine, cecum, colon, 25 cm^2 skin on back, tongue and right-hand side of cheek pouch.
10. Flush the contents of esophagus, stomach, small intestine and cecum with water and collect the contents separately into a test tube.
(§11) 11. Count the CPM of ^125 I-TGFα that distributed in the hamster's tissue and GI contents.

[2] = In vivo uptake and tissue distribution of 125I-TGFα from TJ-TGFα formulation on wounded cheek pouch; design: species or system Golden Syrian hamsters; conditions: for Distribution of 125I-TGFα in the Tissues: Skin: 25 cm^2 skin on back; for Distribution of 125I-TGFα in the Tissues: Blood / Distribution of 125I-TGFα in the Tissues: Cecum / Distribution of 125I-TGFα in the Tissues: Colon / Distribution of 125I-TGFα in the Tissues: Esophagus / Distribution of 125I-TGFα in the Tissues: Kidney / Distribution of 125I-TGFα in the Tissues: Liver / Distribution of 125I-TGFα in the Tissues: Small Intestine / Distribution of 125I-TGFα in the Tissues: Stomach / Distribution of 125I-TGFα in the Tissues: Submaxillary Gland / Distribution of 125I-TGFα in the Tissues: Thyroid / Distribution of 125I-TGFα in the Tissues: Tongue: cheek pouch wound; for Distribution of 125I-TGFα in the Tissues: Cheek Pouch: right-hand side cheek pouch (application site)
Description: as §1, §2, §3, §4, §5, §6, §7, §8
7. Punch a needle into the hamster's heart and withdrawn 1 ml blood by a 5 ml syringe.
as §9, §10, §11

## ^125 I-TGFα: 125I-labelled TGFα (specific activity 45 μci/μg) administered in TJ-TGFα formulation onto the hamster cheek pouch wound
[1]; 15 min.
  Distribution of 125I-TGFα in the GI Contents: Cecum: 0.003%
  Distribution of 125I-TGFα in the GI Contents: Esophagus: 0.00005%
  Distribution of 125I-TGFα in the GI Contents: Small Intestine: 0.003%
  Distribution of 125I-TGFα in the GI Contents: Stomach: 0.03%
[1]; 0.5 hrs.
  Distribution of 125I-TGFα in the GI Contents: Cecum: 0.01%
  Distribution of 125I-TGFα in the GI Contents: Esophagus: 0.01%
  Distribution of 125I-TGFα in the GI Contents: Small Intestine: 0.01%
  Distribution of 125I-TGFα in the GI Contents: Stomach: 0.056%
[1]; 1 hr.
  Distribution of 125I-TGFα in the GI Contents: Cecum: 0.02%
  Distribution of 125I-TGFα in the GI Contents: Esophagus: 0.002%
  Distribution of 125I-TGFα in the GI Contents: Small Intestine: 0.02%
  Distribution of 125I-TGFα in the GI Contents: Stomach: 0.20%
[1]; 2 hrs.
  Distribution of 125I-TGFα in the GI Contents: Cecum: 0.02%
  Distribution of 125I-TGFα in the GI Contents: Esophagus: 0.01%
  Distribution of 125I-TGFα in the GI Contents: Small Intestine: 0.02%
  Distribution of 125I-TGFα in the GI Contents: Stomach: 0.40%
[1]; 4 hrs.
  Distribution of 125I-TGFα in the GI Contents: Cecum: 0.04%
  Distribution of 125I-TGFα in the GI Contents: Esophagus: 0.37%
  Distribution of 125I-TGFα in the GI Contents: Small Intestine: 0.06%
  Distribution of 125I-TGFα in the GI Contents: Stomach: 4.1%
[1]; 6 hrs.
  Distribution of 125I-TGFα in the GI Contents: Cecum: 0.05%
  Distribution of 125I-TGFα in the GI Contents: Esophagus: 0.27%
  Distribution of 125I-TGFα in the GI Contents: Small Intestine: 0.05%
  Distribution of 125I-TGFα in the GI Contents: Stomach: 7.8%
[1]; 24 hrs.
  Distribution of 125I-TGFα in the GI Contents: Cecum: 2.63%
  Distribution of 125I-TGFα in the GI Contents: Esophagus: 0.01%
  Distribution of 125I-TGFα in the GI Contents: Small Intestine: 0.52%
  Distribution of 125I-TGFα in the GI Contents: Stomach: 5.5%
[2]; 15 min.
  Distribution of 125I-TGFα in the Tissues: Skin: 0.04%
  Distribution of 125I-TGFα in the Tissues: Blood: 0.01%
  Distribution of 125I-TGFα in the Tissues: Cecum: 0.303%
  Distribution of 125I-TGFα in the Tissues: Colon: 0.01%
  Distribution of 125I-TGFα in the Tissues: Esophagus: 0.001%
  Distribution of 125I-TGFα in the Tissues: Kidney: 0.02%
  Distribution of 125I-TGFα in the Tissues: Liver: 0.03%
  Distribution of 125I-TGFα in the Tissues: Small Intestine: 0.01%
  Distribution of 125I-TGFα in the Tissues: Stomach: 0.01%
  Distribution of 125I-TGFα in the Tissues: Submaxillary Gland: 0.02%
  Distribution of 125I-TGFα in the Tissues: Thyroid: 0.005%
  Distribution of 125I-TGFα in the Tissues: Tongue: 0.85%
  Distribution of 125I-TGFα in the Tissues: Cheek Pouch: 76%
[2]; 0.5 hrs.
  Distribution of 125I-TGFα in the Tissues: Skin: 0.06%
  Distribution of 125I-TGFα in the Tissues: Blood: 0.02%
  Distribution of 125I-TGFα in the Tissues: Cecum: 0.01%
  Distribution of 125I-TGFα in the Tissues: Colon: 0.02%
  Distribution of 125I-TGFα in the Tissues: Esophagus: 0.01%
  Distribution of 125I-TGFα in the Tissues: Kidney: 0.07%
  Distribution of 125I-TGFα in the Tissues: Liver: 0.07%
  Distribution of 125I-TGFα in the Tissues: Small Intestine: 0.05%
  Distribution of 125I-TGFα in the Tissues: Stomach: 0.03%
  Distribution of 125I-TGFα in the Tissues: Submaxillary Gland: 0.05%
  Distribution of 125I-TGFα in the Tissues: Thyroid: 0.02%
  Distribution of 125I-TGFα in the Tissues: Tongue: 3.13%
  Distribution of 125I-TGFα in the Tissues: Cheek Pouch: 30%
[2]; 1 hr.
  Distribution of 125I-TGFα in the Tissues: Skin: 0.03%
  Distribution of 125I-TGFα in the Tissues: Blood: 0.04%
  Distribution of 125I-TGFα in the Tissues: Cecum: 0.02%
  Distribution of 125I-TGFα in the Tissues: Colon: 0.04%
  Distribution of 125I-TGFα in the Tissues: Esophagus: 0.01%
